Measured values from patent US20230192831A1.

Experiments:
[1] = molecular target: recombinant human GREM1 (hGREM1-His; C-terminal 10His tagged, R&D, #5190-GR) (human) (UniProt O60565); assay: cell-based or functional assay
[2] = molecular target: recombinant human GREM1 (hGREM1-His; C-terminal 10His tagged, R&D, #5190-GR) (human) (UniProt O60565); assay: BLI Octet, captured mAb, 100 nM GREM1 + 5 uM heparin
[3] = molecular target: recombinant human GREM1 (hGREM1-His; C-terminal 10His tagged, R&D, #5190-GR) (human) (UniProt O60565); assay: BLI Octet, captured mAb, 100 nM GREM1
[4] = molecular target: recombinant human GREM1 (hGREM1-His; C-terminal 10His tagged, R&D, #5190-GR) (human) (UniProt O60565); assay: BLI Octet, captured mAb, 100 nM GREM1 without vs with 5 uM heparin

Sequence of recombinant human GREM1 (hGREM1-His; C-terminal 10His tagged, R&D, #5190-GR) (human) (O60565 other isoform, or with tags, fused parts or gaps limits assumed, form in doubt): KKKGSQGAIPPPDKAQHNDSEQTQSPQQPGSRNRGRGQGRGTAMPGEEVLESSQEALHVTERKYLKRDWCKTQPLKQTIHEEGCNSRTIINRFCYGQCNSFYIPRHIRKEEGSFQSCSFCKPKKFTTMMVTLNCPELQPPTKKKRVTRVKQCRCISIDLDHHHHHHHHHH

IC50 [M], W-20-17/BRE-luc luciferase bioassay, 100 pM hBMP4 and 10 nM hGREM1-His [1] [M]	hGREM1-His Inhibition IC50, M; W-20-17 cell differentiation assay (alkaline phosphatase) [1] [nM]	Binding Signal with 30 sec Association (nm) [2] [nm]	Binding Signal with 300 sec Association (nm) [2] [nm]	Binding Signal with 30 sec Association (nm) [3] [nm]	Binding Signal with 300 sec Association (nm) [3] [nm]	Reduction in Signal from Heparin at 30 sec [4] [nm]	Reduction in Signal from Heparin at 300 sec [4] [nm]	Binder
5.3e-10	5.6	0.04	0.37	0.21	0.42	0.17	0.05	H4H6248P (antibody, human IgG4, V domains shown) VH: QVQLVESGGGVVQPGRSLRLSCAASGFTFSNYGMHWVRQVPGKGLEWVAVIWYDGSNKYYADSVKGRFTISRDNSKNTLYLQMNSVRAEDTAVYYCARDDYGDSPGFDYWGQGTLVTVSS VL: EIVMTQSPATLSVSPGERATLSCRASQSVSSSLAWYQQKPGQAPRLLIYDASTRATGIPARFSGSGSGTEFTLTISGLQSEDFAVYYCQQYNNWPPWTFGQGTKVEIK
6.3e-10	11	0.03	0.36	0.27	0.45	0.24	0.09	H4H6251P (antibody, human IgG4, V domains shown) VH: QVQLVESGGGVVQPGKSLRLSCAASGFTFSRYGMHWVRQAPGKGLEWVAVIWYDGSNKYYADSVKGRFTISRDNSKNTLYLQMNSLRADDTAMYYCARDDYGDSPGFDFWGQGTLVTVSS VL: EIVMTQSPATLSVSPGERATLSCRASQSVSSNLAWYQQKPGQAPRLLIYDASTRATGIPARFSGTGSGTEFTLTISSLQSEDFALYYCQQYDDWPPWTFGQGTKVEIK
5.4e-10	3.1	0.05	0.33	0.2	0.39	0.15	0.06	H4H6270P (antibody, human IgG4, V domains shown) VH: QVQLVESGGDVVQPGRSLRLSCAASGFTFSSYGMHWVRQAPGKGLEWVAIIWNDGSNKYYTDSVKGRFTISRDNSKNTLYLQMNGLRAEDTAIYYCARDQDQFDYWGQGTLVTVSS VL: EIVMTQSPATLSVSPGERATLSCRASQSISTNLAWYRQKPGQAPRLLIYDASTRATGIPARFSGSGSGTDFTLTISSLQSEDFAVYYCQQYSNWPPYTFGQGTKLEIK
4.6e-10	3.3	0.07	0.37	0.24	0.42	0.17	0.05	H4H6260P (antibody, human IgG4, V domains shown) VH: QVQLVESGGGVVQPGRSLRLSCAASGFTFSTYGMHWVRQAPGKGLEWVAIIWYDGSNYYYADSVKGRFTISRDNSKNTLYLQMNSLRAEDTAVYYCAREDRNDVFDIWGQGTMVTVSS VL: EIVLTQSPATLSLSPGERATLSCRASQSVSSFLAWYQQKPGQAPRLLIYDSSNRATGIPARFSGSGSGTDFTLTISSLEPEDFAVYYCQQLSNWPPITFGQGTRLEIK
4.4e-10	12	0.06	0.32	0.2	0.37	0.14	0.05	H4H6250P (antibody, human IgG4, V domains shown) VH: QVQLVESGGGVVQPGRSLRLSCAASGFTFSNYGMHWVRQAPGKGLEWVAVIWYDGSNKYYADSVKGRFTISRDNSRKTLYLQMNSLRAEDTAIYYCTRDDYGDYDYPFDYWGQGTLVTVSS VL: DIQMTQSPSSLSASVGDRVTITCRASQGIRNDLGWYQQKPGKAPKRLIYAASSLQSGVPSRFSGTGSGTEFTLTISSLQPEDFATYYCLQHNSYPPFTFGPGTKVDIK
8.2e-10	6.1	0.04	0.35	0.23	0.44	0.19	0.09	H4H6252P (antibody, human IgG4, V domains shown) VH: QVQLVESGGGVVQPGRSLRLSCAASGFTFSNYGMHWVRQAPGRGLEWVAVIWFDGSNKYYADSVKGRFTISRDNSKNTLYLQMNSLRSEDTAVYYCTRDDYGDYDYPFDYWGQGTLVTVSS VL: DIQMTQSPSSLSASVGDRVTITCRASQGIRNDLGWYQQKPGKAPKRLIYAASSLQSGVPSRFSGSGSGTEFTLTISSLQPEDFATYYCLQYNTYPPFTFGPGTKVDIK
